B1: C34 IgG (antibody, V domains shown)
VH: EVQLVESGGGLVQPGRSLRLSCAASGFTFDDYAMHWVRQAPGKGLEWVSGISWNSGSIGYADSVKGRFTISRDNAKNSLYLQMNSLRAEDTALYYCAKDMGYSGNDDYYGMDVWGQGTTVTVSS
VL: DIQLTQSPSSLSASVGDRVTITCRASQRISSYLNWYQQKPGKAPKLLIYGAFSLQSGVPSRFSGSGSGTDFTLTISSLQPEDFATYYCQQSYRTLTRTFGQGTKVEIK
B2: C34 Fab (papain digestion of the mAb) (Fab, V domains shown)
VH: B1 VH
VL: B1 VL
B3: C37 Fab (papain digestion of the mAb) (Fab, V domains shown)
VH: QVQLQESGPGLVKPSETLSLTCTVSGGSIGSSSYYWGWIRQPPGKGLQWIGSFHYSGTTYYNPSLKSRVTISVDTSKNHFSLKLSSVTAADTAVYYCASRQNWNDGYFDYWGQGTLVTVSS
VL: DIQMTQSPATLSLSPGERATLFCRASQSVSSSLAWYQQKPGQAPRLLIYDASNRATGIPARFSGSGSGTDFTLTISSLEPEDFAVYYCQQRGNWPPITFGQGTRLDTK
B4: C37 IgG (antibody, V domains shown)
VH: B3 VH
VL: B3 VL

What follows are binders tested against infectious CHIKV virion particle with E3 associated (strain CHIKV-181/25) (Chikungunya virus) (UniProt Q8JUX5).
Chain of infectious CHIKV virion particle with E3 associated (strain CHIKV-181/25) (Chikungunya virus) (Q8JUX5 whole entry, looked up): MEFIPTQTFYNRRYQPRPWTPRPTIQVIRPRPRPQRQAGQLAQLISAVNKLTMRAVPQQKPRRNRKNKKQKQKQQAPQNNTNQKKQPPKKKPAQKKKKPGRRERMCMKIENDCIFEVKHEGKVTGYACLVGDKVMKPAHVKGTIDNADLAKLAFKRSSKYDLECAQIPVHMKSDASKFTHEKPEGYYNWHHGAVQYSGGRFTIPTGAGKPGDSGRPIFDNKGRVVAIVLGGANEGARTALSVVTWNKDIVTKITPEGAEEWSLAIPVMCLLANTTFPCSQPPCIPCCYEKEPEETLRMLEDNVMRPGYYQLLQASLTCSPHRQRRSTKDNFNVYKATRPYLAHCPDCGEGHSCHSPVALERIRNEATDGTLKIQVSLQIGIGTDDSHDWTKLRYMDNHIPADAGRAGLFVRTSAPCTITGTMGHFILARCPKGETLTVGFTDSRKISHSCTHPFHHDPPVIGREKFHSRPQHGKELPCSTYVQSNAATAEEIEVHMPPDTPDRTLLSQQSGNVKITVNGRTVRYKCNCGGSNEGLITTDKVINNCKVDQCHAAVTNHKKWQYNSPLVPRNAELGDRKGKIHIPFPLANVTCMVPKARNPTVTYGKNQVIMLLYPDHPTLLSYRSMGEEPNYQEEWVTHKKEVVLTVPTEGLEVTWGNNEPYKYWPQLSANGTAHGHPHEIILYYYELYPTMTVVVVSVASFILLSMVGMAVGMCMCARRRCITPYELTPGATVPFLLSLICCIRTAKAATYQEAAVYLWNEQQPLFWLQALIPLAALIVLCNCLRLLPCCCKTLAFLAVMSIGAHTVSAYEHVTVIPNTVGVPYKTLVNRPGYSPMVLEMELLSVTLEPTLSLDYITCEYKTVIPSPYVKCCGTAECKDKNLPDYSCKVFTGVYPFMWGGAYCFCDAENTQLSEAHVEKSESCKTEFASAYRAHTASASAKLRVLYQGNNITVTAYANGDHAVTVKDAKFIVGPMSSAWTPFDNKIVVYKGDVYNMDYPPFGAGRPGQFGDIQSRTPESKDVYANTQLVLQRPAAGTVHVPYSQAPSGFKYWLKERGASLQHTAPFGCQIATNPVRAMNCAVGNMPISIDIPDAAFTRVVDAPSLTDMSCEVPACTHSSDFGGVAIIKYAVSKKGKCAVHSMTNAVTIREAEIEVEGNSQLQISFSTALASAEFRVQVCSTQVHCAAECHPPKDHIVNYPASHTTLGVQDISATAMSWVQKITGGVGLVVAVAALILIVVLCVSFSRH
In the case of B1, the PRNT50, post-attachment neutralisation assay on Vero cells is reported as 48.7 ng/mL. Binder B2 has a PRNT50, post-attachment neutralisation assay on Vero cells of 97 ng/mL. B3 showed a PRNT50, post-attachment neutralisation assay on Vero cells of 727 ng/mL. Binder B4 has a PRNT50, post-attachment neutralisation assay on Vero cells of 164 ng/mL.
